Test results: publication PMC6116203

Target: R1 pyocin fiber PLES_06171 fragment (residues 323–701) (Pseudomonas aeruginosa LESB58)
Test: crystal structure

R1 pyocin fiber PLES_06171 fragment (residues 323–701) (domain or fragment)
stoichiometry N: 3
